# Test results taken from paper PMC12038006 (Nature Communications, 2025).
# T1: Rv1272c from Mycobacterium tuberculosis (Mycobacterium tuberculosis (Mtb) H37Rv, UniProt P9WQJ3 1-631)
# T1 construct: also called subunit of Rv1273c/72c; not shown: Flag, C-terminal, kept
# T1 sequence: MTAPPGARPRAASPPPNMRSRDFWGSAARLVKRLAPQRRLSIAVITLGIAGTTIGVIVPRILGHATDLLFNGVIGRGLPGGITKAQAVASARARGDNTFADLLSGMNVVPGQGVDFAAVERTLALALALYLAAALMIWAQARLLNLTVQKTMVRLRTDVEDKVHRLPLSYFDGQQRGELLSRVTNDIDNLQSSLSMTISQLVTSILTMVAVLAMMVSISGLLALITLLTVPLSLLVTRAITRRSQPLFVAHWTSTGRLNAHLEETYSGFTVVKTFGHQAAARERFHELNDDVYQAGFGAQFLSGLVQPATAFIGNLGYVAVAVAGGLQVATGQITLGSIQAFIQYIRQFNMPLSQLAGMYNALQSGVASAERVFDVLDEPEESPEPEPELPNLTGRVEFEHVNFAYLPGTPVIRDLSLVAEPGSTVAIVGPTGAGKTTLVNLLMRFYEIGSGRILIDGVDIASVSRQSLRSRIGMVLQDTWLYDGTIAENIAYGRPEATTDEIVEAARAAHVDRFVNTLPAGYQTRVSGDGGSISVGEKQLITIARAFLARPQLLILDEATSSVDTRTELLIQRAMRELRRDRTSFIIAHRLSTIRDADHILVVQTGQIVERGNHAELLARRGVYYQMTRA
# B1: Rv1273c from Mycobacterium tuberculosis (natural protein)
# chain: MLLALLRQHIRPYRRLVAMLMMLQLVSTLASLYLPTVNAAIVDDGVAKGDTATIVRLGAVMLGVTGLQVLCAIGAVYLGSRTGAGFGRDLRSAMFEHIITFSERETARFGAPTLLTRSTNDVRQILFLVQMTATVLVTAPIMCVGGIIMAIHQEAALTWLLLVSVPILAVANYWIISHMLPLFRRMQSLIDGINRVMRDQLSGVRVVRAFTREGYERDKFAQANTALSNAALSAGNWQALMLPVTTLTINASSVALIWFGGLRIDSGQMQVGSLIAFLSYFAQILMAVLMATMTLAVLPRASVCAERITEVLSTPAALGNPDNPKFPTDGVTGVVRLAGATFTYPGADCPVLQDISLTARPGTTTAIVGSTGSGKSTLVSLICRLYDVTAGAVLVDGIDVREYHTERLWSAIGLVPQRSYLFSGTVADNLRYGGGPDQVVTEQEMWEALRVAAADGFVQTDGLQTRVAQGGVNFSGGQRQRLAIARAVIRRPAIYVFDDAFSALDVHTDAKVHASLRQVSGDATIIVVTQRISNAAQADQVIVVDNGKIVGTGTHETLLADCPTYAEFAASQSLSATVGGVG
# notes: also called subunit of Rv1273c/72c
# Molecular target: T1, Rv1272c from Mycobacterium tuberculosis
# Experiment: SEC
# Settings: both partners purified
binder,measurement,value
B1,stoichiometry N,1
